The record followed here is article PMC8523606, “Two fungal flavonoid-specific glucosidases/rutinosidases for rutin hydrolysis and rutinoside synthesis under homogeneous and heterogeneous reaction conditions” (AMB Express, 2021).

Details in all cases: 50 mM citrate buffer, 10% (v/v) DMSO
The subject of series [1] is C[C@@H]1O[C@@H](OC[C@H]2O[C@@H](Oc3c(-c4ccc(O)c(O)c4)oc4cc(O)cc(O)c4c3=O)[C@H](O)[C@@H](O)[C@@H]2O)[C@H](O)[C@H](O)[C@H]1O. The experiment in a line: purified protein.
Series [2] has as its system O=c1c(O[C@@H]2O[C@H](CO)[C@@H](O)[C@H](O)[C@H]2O)c(-c2ccc(O)c(O)c2)oc2cc(O)cc(O)c12. The series is described as follows: purified protein.
Series [3] concerns COc1cc(-c2oc3cc(O)cc(O)c3c(=O)c2O[C@@H]2O[C@H](CO[C@@H]3O[C@@H](C)[C@H](O)[C@@H](O)[C@H]3O)[C@@H](O)[C@H](O)[C@H]2O)ccc1O. The series is described as follows: purified protein.
In series [4] the test system is COc1ccc([C@@H]2CC(=O)c3c(O)cc(O[C@@H]4O[C@H](CO[C@@H]5O[C@@H](C)[C@H](O)[C@@H](O)[C@H]5O)[C@@H](O)[C@H](O)[C@H]4O)cc3O2)cc1O. The experiment in a line: purified protein.
Substrate in series [5]: COc1cc(-c2oc3cc(O)cc(O)c3c(=O)c2O[C@@H]2O[C@H](CO[C@@H]3O[C@@H](C)[C@H](O)[C@@H](O)[C@H]3O)[C@@H](O)[C@H](O)[C@H]2O)ccc1O
The series is described as follows: hydrolysis, aglycone release by HPLC. In kind it is biochemical, Penicillium rubens. From the text:
(§1) hydrolysis, aglycone release by HPLC on PcGlc

Substrate in series [6]: COc1ccc([C@@H]2CC(=O)c3c(O)cc(O[C@@H]4O[C@H](CO[C@@H]5O[C@@H](C)[C@H](O)[C@@H](O)[C@H]5O)[C@@H](O)[C@H](O)[C@H]4O)cc3O2)cc1O
The series is described as follows: hydrolysis, aglycone release by HPLC. Format: biochemical, Penicillium rubens.
Text: as §1

Substrate in series [7]: C[C@@H]1O[C@@H](OC[C@H]2O[C@@H](Oc3c(-c4ccc(O)c(O)c4)oc4cc(O)cc(O)c4c3=O)[C@H](O)[C@@H](O)[C@@H]2O)[C@H](O)[C@H](O)[C@H]1O
The experiment in a line: hydrolysis, aglycone release by HPLC. Format: biochemical, Penicillium rubens.
Text: as §1

Substrate in series [8]: O=c1c(O[C@@H]2O[C@H](CO)[C@@H](O)[C@H](O)[C@H]2O)c(-c2ccc(O)c(O)c2)oc2cc(O)cc(O)c12
The experiment in a line: hydrolysis, aglycone release by HPLC. In kind it is biochemical, Penicillium rubens.
Text: as §1

In general, Km refers to the concentration of substrate that gives half-maximal velocity. One may read the kcat as the maximal rate divided by the concentration of active sites. Usually kcat/Km stands for the turnover number divided by the Michaelis constant. Regarding McGlc (Mucor circinelloides), the Km in series [1] was determined as 0.12 ± 0.03 mM; in series [2] it was 0.04 ± 0.01 mM; in series [3] it was 0.21 ± 0.09 mM; in series [4] it was 4.8 ± 0.1 mM. Besides, the turnover number (kcat) worked out at 22.7 ± 0.5 s⁻¹ in series [1], 53.9 ± 1.9 s⁻¹ in series [2], 69.1 ± 6 s⁻¹ in series [3] and 23 ± 1.7 s⁻¹ in series [4]. Further, the specificity constant (kcat/Km) in series [1] came to 189000 M⁻¹ s⁻¹; in series [2], 1.35e+06 M⁻¹ s⁻¹; in series [3] it was 257000 M⁻¹ s⁻¹; in series [4], 4800 M⁻¹ s⁻¹.

B1: PcGlc (Penicillium rubens Wisconsin 54-1255) (protein)
chain: TPTSFHLSPNNNISHDYINWRTFHGRGVNLGGWLQQESTIDTSWWSTYSGGASDEWNLCAQLGSKCGPVLEHRYKTFITTRDIDTLASSGVTVLRIPTSYAAWVRVPGSQLYSGKQKEHIHRIATYAIEKYDMHIILDIHSLPGGINGLDIGEAVGHWGWYNNDTALKYSLDAVDSALHFIQFSSGHPQSYTLSPINEPVDNRDFSTFGTPAALSEAGASWVLKYLHAVIDRTKKVNPRIPVMCQGSFKPETYWSPHFDAGANIVFDEHHYYFQYSNSTSANLPEFLCQDAKKSAGDGKFPTFVGEWAIEASDNDLGLRGQNLQAGISAFGQFTRGSSYWTAKFSSNATIKGEGVKGNYWNYEEFVRMGYLDGQVEVPNYCQ
notes: secreted from recombinant Pichia pastoris KM71H, purified by cation exchange chromatography, glycosylated
As for B1, the Michaelis constant (Km) in series [5] was found to be 0.29 ± 0.1 mM; in series [6], 0.38 ± 0.09 mM; in series [7] it was 0.21 ± 0.06 mM; in series [8], 0.03 ± 0.006 mM. For the same molecule, the kcat in series [5] came out at 120 ± 13 s⁻¹; in series [6] it was 9.3 ± 0.8 s⁻¹; in series [7], 39.3 ± 1.2 s⁻¹; in series [8] it was 30.3 ± 1.5 s⁻¹. For the same molecule, the kcat/Km in series [5] turned out to be 414000 M⁻¹ s⁻¹; in series [6], 24500 M⁻¹ s⁻¹; in series [7], 187000 M⁻¹ s⁻¹; in series [8], 1.01e+06 M⁻¹ s⁻¹.
